Measurements reported in patent US20250129141A1 (BEIJING WISDOMAB BIOTECHNOLOGY, published 2025).
Changes are numbered by the printed parent chain.

B1: S22E2-h1-IgG1 (antibody, V domains shown)
VH: QVTLKESGPVLVKPTETLTLTCTVSGFSLTDYGVNWIRQPPGKALEWLGMIWSDGTTDYSSALKSRLTISKDTSKSQVVLTMTNMDPVDTATYYCARVDGYSHYYAMDYWGQGTLVTVSS
VL: DIQMTQSPSSLSASVGDRVTITCRASENIYSYLAWYQQKQGKAPQLLIYNAKTLAEGVSSRFSGSGSGTQFTLTISSLQPEDFATYYCQHHYGLPFTFGQGTKLEIK
B2: S24B8-h1-IgG1 (antibody, V domains shown)
VH: QVQLVQSGAEVKKPGSSVKVSCKASGYTFTSYWIYWVRQAPGQGLEWIGEINPTNGFANYNEKFKTKATITVDKSTSTAYMELSSLRSEDTAVYYCAIHFRFPYWGQGTMVTVSS
VL: DIQMTQSPSSLSASVGDRVTITCRASQDIGSSLTWLQQKPGKAPKRLIYATSSLDSGVPSRFSGSGSGTDYTLTISSLQPEDFATYYCLQYASSPYTFGQGTKLEIK
B3: S24B8-h2-IgG1 (antibody, V domains shown)
VH: B2 VH with N55A
VL: B2 VL
B4: S24B8-h3-IgG1 (antibody, V domains shown)
VH: B2 VH with G56A
VL: B2 VL

Target: recombinant protein of C-terminal domain of tetanus toxin heavy chain with C-terminal His tag (TT-Hc-His) (Clostridium tetani, UniProt P04958 865-1315)

Binder | Kd [nM] | koff [s⁻¹]
B1 | 0.573 | 
B2 |  | < 1e-05
B3 | 0.385 | 
B4 | 0.164 | 
